Patent publication US20250152742A1, “COMPOSITIONS AND METHODS FOR NEUROLOGICAL DISEASES” (Trames Bio, Inc., priority 2022, published 2025)

System: engineered chimeric receptor SEQ ID NO: 33 and its mutants (human α7-nAChR ligand binding domain / human GlyRα1 ion pore domain) in Lenti-X 293T cells
Test: YFP fluorescence quenching anion reporter plate reader assay (percent quench, EC50)
Assay type: cell-based
Conditions: for YFP fluorescence quenching using CNL001 (percent quench): receptor named in row; for YFP fluorescence quenching using Facinicline, 30 nM fac: ligand Facinicline 30 nM; for YFP fluorescence quenching using Facinicline, 300 nM fac: ligand Facinicline 300 nM; for YFP fluorescence quenching using Facinicline, 30 uM fac: ligand Facinicline 30 uM; for YFP fluorescence quenching using TC-6987, 1 uM tc6987: ligand TC-6987 1 uM; for YFP fluorescence quenching using TC-6987, 10 uM tc6987: ligand TC-6987 10 uM; for YFP fluorescence quenching using TC-6987, 500 uM tc6987: ligand TC-6987 500 uM; for YFP fluorescence quenching using Varenicline, 3 nM var: ligand Varenicline 3 nM; for YFP fluorescence quenching using Varenicline, 30 nM var: ligand Varenicline 30 nM; for YFP fluorescence quenching using Varenicline, 300 nM var: ligand Varenicline 300 nM; for YFP fluorescence quenching using Varenicline, 500 nM var: ligand Varenicline 500 nM; for YFP fluorescence quenching using Varenicline, 1 uM var: ligand Varenicline 1 uM
Outline: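 Lenti-X 293T cells co-expressing an anion-quenchable YFP were transiently transfected with receptor DNA, then ligand was added in NaI-substituted buffer (pH 7.2) after 30 min at 37 °C. Fluorescence was read about 2 min; percent quench = mean of last 10 s over 15 s pre-ligand baseline.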

[1] = 1 nM CNL001, first column so headed
[2] = 1 nM CNL001, second column so headed
[3] = 1 nM brd (TC-5619/Bradanicline)
[4] = 3 nM brd (TC-5619/Bradanicline)
[5] = 10 nM CNL001, first column so headed
[6] = 10 nM CNL001, second column so headed
[7] = 10 nM brd (TC-5619/Bradanicline)
[8] = 30 nM brd (TC-5619/Bradanicline)
[9] = 50 nM CNL001, first column so headed
[10] = 50 nM CNL001, second column so headed
[11] = 100 nM CNL001, first column so headed
[12] = 100 nM CNL001, second column so headed
[13] = 300 nM brd (TC-5619/Bradanicline)
[14] = 1 uM CNL001, first column so headed
[15] = 1 uM CNL001, second column so headed

B1: CODA806: engineered receptor: Y115D, L131Q in SEQ ID NO: 33 (Chemogenic receptor-11) (protein)
chain: MRCSPGGVWLALAASLLHVSLQGEFQRKLYKELVKNYNPLERPVANDSQPLTVYFSLSLLQIMDVDEKNQVLTTNIWLQMSWTDHYLQWNVSEYPGVKTVRFPDGQIWKPDILLDNSADERFDATFHTNVQVNSSGHCQYLPPGIFKSSCPMDLKNFPMDVQTCKLKFGSWSYGGWSLDLQMQEADISGYIPNGEWDLVGIPGKRSERFYECCKEPYPDVTFTVTMRRRMGYYLIQMYIPSLLIVILSWISFWINMDAAPARVGLGITTVLTMTTQSSGSRASLPKVSYVKAIDIWMAVCLLFVFSALLEYAAVNFVSRQHKELLRFRRKRRHHKSPMLNLFQEDEAGEGRFNFSAYGMGPACLQAKDGISVKGANNSNTTNPPPAPSKSPEEMRKLFIQRAKKIDKISRIGFPMAFLIFNMFYWIIYKIVRREDVHNQ
modifications: synthetic sequence of chimeric LGIC
YFP fluorescence quenching using CNL001 (percent quench) [1]: 6.587%
YFP fluorescence quenching using CNL001 (percent quench) [2]: −5.179%
YFP fluorescence quenching using TC-5619/Bradanicline (percent quench) [3]: 0.92%
YFP fluorescence quenching using TC-5619/Bradanicline (percent quench) [4]: −4.65%
YFP fluorescence quenching using CNL001 (percent quench) [5]: −2.366%
YFP fluorescence quenching using CNL001 (percent quench) [6]: −1.272%
YFP fluorescence quenching using TC-5619/Bradanicline (percent quench) [7]: 0.38%
YFP fluorescence quenching using TC-5619/Bradanicline (percent quench) [8]: −8.96%
YFP fluorescence quenching using CNL001 (percent quench) [9]: 2.763%
YFP fluorescence quenching using CNL001 (percent quench) [10]: 1.995%
YFP fluorescence quenching using ABT-126 (percent quench) (50 nM abt (ABT-126)): −1.81%
YFP fluorescence quenching using CNL001 (percent quench) [11]: 3.091%
YFP fluorescence quenching using CNL001 (percent quench) [12]: 1.45%
YFP fluorescence quenching (percent quench) (100 nM CNL002): −10.03%
YFP fluorescence quenching using ABT-126 (percent quench) (100 nM abt (ABT-126)): −2.61%
YFP fluorescence quenching using AZD-0328 (percent quench) (100 nM azd0328): 12.15%
YFP fluorescence quenching using TC-5619/Bradanicline (percent quench) (100 nM brd (TC-5619/Bradanicline)): 12.18%
YFP fluorescence quenching using ABT-126 (percent quench) (300 nM abt (ABT-126)): −3.78%
YFP fluorescence quenching using AZD-0328 (percent quench) (300 nM azd0328): 30.92%
YFP fluorescence quenching using TC-5619/Bradanicline (percent quench) [13]: −0.3%
YFP fluorescence quenching using CNL001 (percent quench) [14]: 7.331%
YFP fluorescence quenching using CNL001 (percent quench) [15]: 9.103%
YFP fluorescence quenching (percent quench) (1 uM CNL002): −3.33%
YFP fluorescence quenching using ABT-126 (percent quench) (1 uM abt (ABT-126)): −2.6%
YFP fluorescence quenching using TC-5619/Bradanicline (percent quench) (1 uM brd (TC-5619/Bradanicline)): 45.47%
YFP fluorescence quenching (percent quench) (10 uM ach (acetylcholine)): 9.47%
YFP fluorescence quenching (percent quench) (30 uM CNL002): 6.96%
YFP fluorescence quenching using AZD-0328 (percent quench) (30 uM azd0328): 68.65%
YFP fluorescence quenching (percent quench) (100 uM ach (acetylcholine)): 6.12%
YFP fluorescence quenching (percent quench) (1 mM ach (acetylcholine)): −1.56%
YFP fluorescence quenching (percent quench) (3 mM ach (acetylcholine)): 17.57%
YFP fluorescence quenching using Facinicline, 30 nM fac: 41.32
YFP fluorescence quenching using Facinicline, 100 nM fac (ligand Facinicline 100 nM): 59.51
YFP fluorescence quenching using Facinicline, 300 nM fac: 74.86
YFP fluorescence quenching using Facinicline, 10 uM fac (ligand Facinicline 10 uM): 78.53
YFP fluorescence quenching using Facinicline, 30 uM fac: 84.45
YFP fluorescence quenching using TC-6987, 1 uM tc6987: 38.83
YFP fluorescence quenching using TC-6987, 10 uM tc6987: 31.59
YFP fluorescence quenching using TC-6987, 500 uM tc6987: 29.83

B2: CODA1025: engineered receptor: R101F, L131G in SEQ ID NO: 33 (protein)
chain: MRCSPGGVWLALAASLLHVSLQGEFQRKLYKELVKNYNPLERPVANDSQPLTVYFSLSLLQIMDVDEKNQVLTTNIWLQMSWTDHYLQWNVSEYPGVKTVFFPDGQIWKPDILLYNSADERFDATFHTNVGVNSSGHCQYLPPGIFKSSCPMDLKNFPMDVQTCKLKFGSWSYGGWSLDLQMQEADISGYIPNGEWDLVGIPGKRSERFYECCKEPYPDVTFTVTMRRRMGYYLIQMYIPSLLIVILSWISFWINMDAAPARVGLGITTVLTMTTQSSGSRASLPKVSYVKAIDIWMAVCLLFVFSALLEYAAVNFVSRQHKELLRFRRKRRHHKSPMLNLFQEDEAGEGRFNFSAYGMGPACLQAKDGISVKGANNSNTTNPPPAPSKSPEEMRKLFIQRAKKIDKISRIGFPMAFLIFNMFYWIIYKIVRREDVHNQ
modifications: synthetic sequence of chimeric LGIC
YFP fluorescence quenching using CNL001 (percent quench) [1]: −18.527%
YFP fluorescence quenching using CNL001 (percent quench) [2]: −21.577%
YFP fluorescence quenching using TC-5619/Bradanicline (percent quench) [3]: −10.61%
YFP fluorescence quenching using TC-5619/Bradanicline (percent quench) [4]: 2.63%
YFP fluorescence quenching using CNL001 (percent quench) [5]: 14.063%
YFP fluorescence quenching using CNL001 (percent quench) [6]: 49.818%
YFP fluorescence quenching using TC-5619/Bradanicline (percent quench) [7]: 17.71%
YFP fluorescence quenching using TC-6683 (percent quench) (30 nM TC-6683): −1.645%
YFP fluorescence quenching using TC-5619/Bradanicline (percent quench) [8]: 68.48%
YFP fluorescence quenching using CNL001 (percent quench) [9]: 77.765%
YFP fluorescence quenching using CNL001 (percent quench) [10]: 79.23%
YFP fluorescence quenching using ABT-126 (percent quench) (50 nM abt (ABT-126)): −11.53%
YFP fluorescence quenching using CNL001 (percent quench) [11]: 80.544%
YFP fluorescence quenching using CNL001 (percent quench) [12]: 80.695%
YFP fluorescence quenching (percent quench) (100 nM CNL002): 12.48%
YFP fluorescence quenching using ABT-126 (percent quench) (100 nM abt (ABT-126)): −7.61%
YFP fluorescence quenching using AZD-0328 (percent quench) (100 nM azd0328): 6.26%
YFP fluorescence quenching using TC-6683 (percent quench) (300 nM TC-6683): 3.043%
YFP fluorescence quenching using ABT-126 (percent quench) (300 nM abt (ABT-126)): 6.55%
YFP fluorescence quenching using AZD-0328 (percent quench) (300 nM azd0328): 37.98%
YFP fluorescence quenching using TC-5619/Bradanicline (percent quench) [13]: 75.12%
YFP fluorescence quenching using CNL001 (percent quench) [14]: 81.191%
YFP fluorescence quenching using CNL001 (percent quench) [15]: 82.385%
YFP fluorescence quenching (percent quench) (1 uM CNL002): 46.04%
YFP fluorescence quenching using ABT-126 (percent quench) (1 uM abt (ABT-126)): 25.08%
YFP fluorescence quenching using TC-6683 (percent quench) (3 uM TC-6683): 0.082%
YFP fluorescence quenching (percent quench) (10 uM ach (acetylcholine)): 12.57%
YFP fluorescence quenching (percent quench) (30 uM CNL002): 39.82%
YFP fluorescence quenching using TC-6683 (percent quench) (30 uM TC-6683): 2.449%
YFP fluorescence quenching using AZD-0328 (percent quench) (30 uM azd0328): 79.31%
YFP fluorescence quenching (percent quench) (50 uM ach (acetylcholine)): −3.46%
YFP fluorescence quenching using TC-6683 (percent quench) (100 uM TC-6683): 10.437%
YFP fluorescence quenching (percent quench) (100 uM ach (acetylcholine)): 12.65%
YFP fluorescence quenching (percent quench) (300 uM ach (acetylcholine)): −6.96%
YFP fluorescence quenching (percent quench) (500 uM ach (acetylcholine)): −6.77%
YFP fluorescence quenching (percent quench) (1 mM ach (acetylcholine)): 19.42%
YFP fluorescence quenching (percent quench) (3 mM ach (acetylcholine)): 65.06%
YFP fluorescence quenching using Facinicline, 30 nM fac: −8.99
YFP fluorescence quenching using Facinicline, 300 nM fac: 10.21
YFP fluorescence quenching using Facinicline, 30 uM fac: 78.24
YFP fluorescence quenching using TC-6987, 1 uM tc6987: −13.32
YFP fluorescence quenching using TC-6987, 10 uM tc6987: 43.71
YFP fluorescence quenching using TC-6987, 500 uM tc6987: 53.98
YFP fluorescence quenching using Varenicline, 3 nM var (first column): 48.074
YFP fluorescence quenching using Varenicline, 3 nM var (second column): 60.978
YFP fluorescence quenching using Varenicline, 30 nM var (first column): 70.023
YFP fluorescence quenching using Varenicline, 30 nM var (second column): 69.433
YFP fluorescence quenching using Varenicline, 300 nM var (first column): 78.989
YFP fluorescence quenching using Varenicline, 300 nM var (second column): 79.21
YFP fluorescence quenching using Varenicline, 500 nM var (first column): 79.212
YFP fluorescence quenching using Varenicline, 500 nM var (second column): 79.771
YFP fluorescence quenching using Varenicline, 1 uM var (first column): 79.538
YFP fluorescence quenching using Varenicline, 1 uM var (second column): 80.577
